Results: article PMC9375095

Biological target: E-cadherin (human (endogenous in MCF7, HaCaT and FFPE human tissue))
Test: MolBoolean (proximity assay with antibody-DNA conjugates); FFPE human tissue sections after deparaffinisation and antigen retrieval; secondary proximity probes; percentage of RCPs in each category per frame

E-cadherin (human (endogenous in MCF7, HaCaT and FFPE human tissue)), sequence (P12830 23-882): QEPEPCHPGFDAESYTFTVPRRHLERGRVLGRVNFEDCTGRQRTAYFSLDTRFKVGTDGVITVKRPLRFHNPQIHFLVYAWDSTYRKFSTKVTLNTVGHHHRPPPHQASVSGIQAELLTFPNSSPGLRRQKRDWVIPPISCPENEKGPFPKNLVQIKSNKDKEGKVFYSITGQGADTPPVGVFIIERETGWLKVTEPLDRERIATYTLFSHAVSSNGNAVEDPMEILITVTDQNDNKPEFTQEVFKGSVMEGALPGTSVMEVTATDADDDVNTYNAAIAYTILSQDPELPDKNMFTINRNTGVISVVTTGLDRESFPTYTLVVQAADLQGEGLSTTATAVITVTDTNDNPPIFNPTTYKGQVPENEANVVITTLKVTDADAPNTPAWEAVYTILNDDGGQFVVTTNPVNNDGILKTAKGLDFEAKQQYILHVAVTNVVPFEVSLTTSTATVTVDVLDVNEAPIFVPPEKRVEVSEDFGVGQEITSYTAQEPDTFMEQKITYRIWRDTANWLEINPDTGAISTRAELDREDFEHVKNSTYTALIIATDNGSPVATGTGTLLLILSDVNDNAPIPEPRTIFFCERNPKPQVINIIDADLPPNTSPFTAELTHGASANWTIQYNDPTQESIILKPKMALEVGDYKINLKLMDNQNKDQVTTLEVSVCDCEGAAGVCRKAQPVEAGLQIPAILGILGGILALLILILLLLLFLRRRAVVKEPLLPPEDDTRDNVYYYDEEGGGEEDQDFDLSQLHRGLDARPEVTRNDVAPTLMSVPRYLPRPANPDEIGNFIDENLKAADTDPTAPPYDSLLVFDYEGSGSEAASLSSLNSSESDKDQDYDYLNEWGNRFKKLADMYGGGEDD

percent of the detected signal per image from complexes: 50%
Substance: β-catenin (from UniProt P35222 1-781) (natural protein)
